Laboratory results as given in patent publication US20200223885A1 (TOSOH, published 2020).

How the values were obtained:
[1] = biological target: T1, IgG1 (manufactured by Sigma-Aldrich); assay: SPR (Biacore T100), Fc-binding protein amine-coupled to CM5, IgG1 as analyte
T1 construct: Analyte in the SPR assay, diluted in HBS-EP; also called IgG1 antibody
Description: (7) IgG1-binding ability of each Fc-binding protein collected as the elution fraction in (6) was evaluated using the surface plasmon resonance method. Upon measurement of the binding ability using the surface plasmon resonance method, Biacore T100 (manufactured by GE Healthcare) was used as a measurement system, Sensor Chip CM5 (manufactured by GE Healthcare) was used as a sensor chip, and Biacore T100 Evaluation Software (manufactured by GE Healthcare) was used as analysis software.
(8) A solution prepared by diluting IgG1 (manufactured by Sigma-Aldrich) with HBS-EP (manufactured by GE Healthcare) was supplied to a sensor chip on which each Fc-binding protein was separately immobilized using an Amine Coupling Kit (manufactured by GE Healthcare), thereby obtaining a sensorgram. Curve fitting was performed based on the sensorgram so as to calculate IgG1-binding ability.

[2] = biological target: T2, monoclonal antibody (RITUXAN, manufactured by Zenyaku Kogyo Co., Ltd.); assay: affinity chromatography on the FcR9_F-immobilized gel column; equilibration 20 mM acetate, 50 mM NaCl, pH 5.0; elution by pH gradient to 10 mM glycine-HCl pH 3.0; 0.6 mL/min; A280
T2 construct: That tie rests on the trade name; also called rituximab
T2 sequence (heavy, as listed by the source, chain 1 of 2): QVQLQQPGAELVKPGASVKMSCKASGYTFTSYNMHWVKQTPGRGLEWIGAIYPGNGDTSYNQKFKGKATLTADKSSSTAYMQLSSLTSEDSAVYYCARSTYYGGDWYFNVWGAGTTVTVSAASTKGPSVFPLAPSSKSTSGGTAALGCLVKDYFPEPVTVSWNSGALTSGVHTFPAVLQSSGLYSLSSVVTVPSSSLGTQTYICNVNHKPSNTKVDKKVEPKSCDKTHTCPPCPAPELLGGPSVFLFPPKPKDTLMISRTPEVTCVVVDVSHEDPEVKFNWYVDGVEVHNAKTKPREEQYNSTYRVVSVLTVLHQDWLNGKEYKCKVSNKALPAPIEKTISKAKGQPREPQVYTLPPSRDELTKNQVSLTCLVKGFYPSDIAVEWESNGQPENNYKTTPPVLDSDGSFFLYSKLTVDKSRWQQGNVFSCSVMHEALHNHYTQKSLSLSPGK
T2 sequence (light, as listed by the source, chain 2 of 2): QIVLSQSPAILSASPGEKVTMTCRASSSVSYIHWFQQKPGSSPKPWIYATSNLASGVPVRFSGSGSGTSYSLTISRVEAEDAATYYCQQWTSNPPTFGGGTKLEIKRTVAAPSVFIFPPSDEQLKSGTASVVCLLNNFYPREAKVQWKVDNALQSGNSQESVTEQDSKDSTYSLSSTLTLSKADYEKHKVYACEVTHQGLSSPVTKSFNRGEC
Description: (4) Five microliters of a monoclonal antibody (RITUXAN, manufactured by Zenyaku Kogyo Co., Ltd.), which was diluted with phosphate buffered saline (PBS) (pH 7.4) to yield a concentration of 1.0 mg/mL, was added at a flow rate of 0.6 mL/min.
(5) Washing was performed with the equilibration buffer for 2 minutes while the flow rate was maintained at 0.6 mL/min. Subsequently, a monoclonal antibody adsorbed was eluted with a pH gradient of 10 mM glycine-HCl buffer (pH 3.0) (i.e., a gradient in which 10 mM glycine-HCl buffer (pH 3.0) accounts for 100% in 28 minutes).

B1: Fc-binding protein FcR9 (human FcγRIIIa amino acid substitution product) (receptor)
chain: KIEEAMGMRTEDLPKAEVILEPQWNRVLEKDSVTLKCRGAYSPEDNSTQWFHNESLISSQASSYLIDAATVDDSGEYRCQTSLSTLSDPVQLEVHIGWLLLQAPRWEFKEGDPIHLRCHSWKNTALHKVTYLQNGKGRKYFHHNSDFYIPKATLKDSGSYSCRGLVGSKNVSSETVNITITQGGHHHHHH
Kd [1]: 77.3 nM
koff [1]: 0.0313 s⁻¹
kon [1]: 405000 M⁻¹ s⁻¹

B2: FcR9_F_Cys (FcR9_F with a cysteine tag added) (receptor)
chain: MGMRTEDLPKAEVILEPQWNRVLEKDSVTLKCRGAYSPEDNSTQWFHNESLISSQASSYLIDAATVDDSGEYRCQTSLSTLSDPVQLEVHIGWLLLQAPRWEFKEGDPIHLRCHSWKNTALHKVTYLQNGKGRKYFHHNSDFYIPKATLKDSGSYSCRGLFGSKNVSSETVNITITQGCRNDTCG
notes: also called FcR9_F-immobilized gel; FcR9_F column
binding result [2]: binds
